Laboratory results published in the Immune Epitope Database (IEDB).

What was measured:
HLA-B*15:03 = test: IEDB peptide-MHC binding, purified MHC/competitive/radioactivity; filed as Kd, often an IC50 or EC50 that approximates it; ≥ and ≤ were set here for values at or beyond the usual limits of such assays; details: source organism: Vaccinia virus WR
HLA-B*58:01 [1] = test: as above
HLA-B*57:01 [2] = test: as above
HLA-A*03:01 [3] = test: IEDB peptide-MHC binding, purified MHC/competitive/fluorescence; filed as Kd, often an IC50 or EC50 that approximates it; ≥ and ≤ were set here for values at or beyond the usual limits of such assays; details: source organism: Escherichia coli
HLA-A*01:01 = test: IEDB peptide-MHC binding, purified MHC/direct/fluorescence; filed as Kd, often an IC50 or EC50 that approximates it; ≥ and ≤ were set here for values at or beyond the usual limits of such assays
HLA-A*29:02 = test: as above
HLA-A*26:01 = test: IEDB peptide-MHC binding, purified MHC/competitive/fluorescence; filed as Kd, often an IC50 or EC50 that approximates it; ≥ and ≤ were set here for values at or beyond the usual limits of such assays; details: source organism: Salmonella enterica subsp. enterica serovar Typhi
HLA-B*15:01 [4] = test: as above; details: source organism: Salmonella enterica subsp. enterica serovar Typhi
HLA-B*35:01 = test: as above; details: source organism: Salmonella enterica subsp. enterica serovar Typhi
HLA-B*40:01 = test: IEDB peptide-MHC binding, purified MHC/direct/fluorescence; filed as Kd, often an IC50 or EC50 that approximates it; ≥ and ≤ were set here for values at or beyond the usual limits of such assays
HLA-A*11:01 = test: as above
HLA-B*39:01 = test: as above
HLA-A*69:01 = test: as above
HLA-B*15:01 [5] = test: as above; details: source organism: Mycobacterium tuberculosis
HLA-A*03:01 [6] = test: as above
HLA-B*58:01 [7] = test: as above
HLA-B*27:05 = test: as above
HLA-B*07:02 = test: as above
HLA-B*46:01 = test: as above
HLA-B*57:01 [8] = test: as above
HLA-B*44:02 = test: as above
HLA-A*31:01 = test: as above
HLA-A*30:01 = test: IEDB peptide-MHC binding, purified MHC/competitive/radioactivity; filed as Kd, often an IC50 or EC50 that approximates it; ≥ and ≤ were set here for values at or beyond the usual limits of such assays; details: source organism: Vaccinia virus WR
HLA-B*08:01 [9] = test: as above; details: source organism: Vaccinia virus WR
HLA-B*15:01 [10] = test: as above; details: source organism: Vaccinia virus WR
HLA-A*32:01 = test: as above; details: source organism: Vaccinia virus WR
HLA-A*68:02 = test: IEDB peptide-MHC binding, purified MHC/competitive/fluorescence; filed as Kd, often an IC50 or EC50 that approximates it; ≥ and ≤ were set here for values at or beyond the usual limits of such assays; details: source organism: Cryptosporidium parvum Iowa II
HLA-B*18:01 = test: IEDB peptide-MHC binding, purified MHC/direct/fluorescence; filed as Kd, often an IC50 or EC50 that approximates it; ≥ and ≤ were set here for values at or beyond the usual limits of such assays; details: source organism: Mycobacterium avium 104
HLA-B*48:01 = test: as above; details: source organism: Mycobacterium avium 104
HLA-B*08:01 [11] = test: as above; details: source organism: Mycobacterium avium 104
HLA-A*02:01 = test: as above; details: source organism: Mycobacterium avium 104
[12] = source organism: Dengue virus 2 Jamaica/1409/1983
[13] = source organism: Dengue virus 4 Philippines/H241/1956
[14] = source organism: Mycobacterium tuberculosis variant bovis
[15] = source organism: Mycobacterium tuberculosis
[16] = source organism: Mycobacterium avium 104

**Q.** AQYASTLSV was tested. Which Kd (HLA-B*15:03) did it give?
**A.** The Kd was 0.000162 µM.

**Q.** For ASGKLITEW, which Kd (HLA-B*58:01 [1]; [12]) is on record?
**A.** The Kd was 13.5 nM.

**Q.** What about the Kd (HLA-B*57:01 [2]; [12]) of the same sequence?
**A.** The Kd was 4.7 nM.

**Q.** ATGPISTLW was tested. Which Kd (HLA-B*58:01 [1]; [12]) did it give?
**A.** The Kd was 1.49 nM.

**Q.** What about the Kd (HLA-B*57:01 [2]; [12]) of the same sequence?
**A.** The Kd was 1.42 nM.

**Q.** For ATGPVLTLW, which Kd (HLA-B*58:01 [1]; [13]) is on record?
**A.** Its Kd is 0.422 nM.

**Q.** And the Kd (HLA-B*57:01 [2]; [13])?
**A.** The Kd was 2.48 nM.

**Q.** Which Kd (HLA-A*03:01 [3]) does the source give for ATMATRRGY here?
**A.** The Kd was 125 nM.

**Q.** Which results are given for DTDPLPVVF?
**A.** Kd (HLA-A*01:01; [14]): 236 nM; Kd (HLA-A*29:02; source organism: Mycobacterium tuberculosis str. Haarlem): ≥ 20 µM

**Q.** FAHDDRYLY was tested. Which Kd (HLA-A*26:01) did it give?
**A.** The Kd was 54.4 nM.

**Q.** What about the Kd (HLA-B*15:01 [4]) of the same sequence?
**A.** Its Kd is 200 nM.

**Q.** What about the Kd (HLA-B*35:01) of the same sequence?
**A.** The Kd was 0.2 nM.

**Q.** How did the Kd (HLA-B*58:01 [1]; [12]) turn out when FASALTALND was run?
**A.** The Kd was 1570 nM.

**Q.** And the Kd (HLA-B*57:01 [2]; [12])?
**A.** Its Kd is 636 nM.

**Q.** With FHSRFVQAL as the sequence, how does the Kd (HLA-B*40:01; [15]) read?
**A.** The Kd was at least 20 µM.

**Q.** What about the Kd (HLA-A*01:01; [15]) of the same sequence?
**A.** Its Kd is at least 20000 nM.

**Q.** And the Kd (HLA-A*11:01; [15])?
**A.** Its Kd is at least 20 µM.

**Q.** What about the Kd (HLA-B*39:01; [15]) of the same sequence?
**A.** The Kd was 39.9 nM.

**Q.** And the Kd (HLA-A*69:01; [15])?
**A.** Its Kd is at least 20 µM.

**Q.** What about the Kd (HLA-B*15:01 [5]) of the same sequence?
**A.** Its Kd is at least 20 µM.

**Q.** And the Kd (HLA-A*03:01 [6]; [15])?
**A.** Its Kd is at least 20 µM.

**Q.** And the Kd (HLA-B*58:01 [7]; [15])?
**A.** Its Kd is at least 20 µM.

**Q.** What about the Kd (HLA-B*27:05; [15]) of the same sequence?
**A.** The Kd was at least 20 µM.

**Q.** And the Kd (HLA-B*07:02; [15])?
**A.** The Kd was at least 20 µM.

**Q.** And the Kd (HLA-B*46:01; [15])?
**A.** Its Kd is at least 20 µM.

**Q.** What about the Kd (HLA-B*57:01 [8]; [15]) of the same sequence?
**A.** The Kd was at least 20 µM.

**Q.** What about the Kd (HLA-B*44:02; [15]) of the same sequence?
**A.** The Kd was at least 20 µM.

**Q.** And the Kd (HLA-A*31:01; [15])?
**A.** The Kd was at least 20 µM.

**Q.** What about the Kd (HLA-A*29:02; [15]) of the same sequence?
**A.** Its Kd is at least 20 µM.

**Q.** For FSKKKVCFV, which Kd (HLA-B*15:03) is on record?
**A.** The Kd was 13.1 µM.

**Q.** And the Kd (HLA-A*30:01)?
**A.** Its Kd is 1160 nM.

**Q.** What about the Kd (HLA-B*08:01 [9]) of the same sequence?
**A.** Its Kd is 5.98 nM.

**Q.** And the Kd (HLA-B*15:01 [10])?
**A.** The Kd was 1850 nM.

**Q.** What about the Kd (HLA-A*32:01) of the same sequence?
**A.** The Kd was at least 35.4 µM.

**Q.** How did the Kd (HLA-A*68:02) turn out when FTAYYLILA was run?
**A.** The Kd was 9.7 nM.

**Q.** What does the source list for GTDSNGMLW?
**A.** Kd (HLA-A*01:01; [15]): 74.8 nM; Kd (HLA-A*29:02; source organism: Mycobacterium tuberculosis H37Rv): ≥ 20 µM

**Q.** What does the source list for HQAIISDVL?
**A.** Kd (HLA-A*01:01; [14]): ≥ 20000 nM; Kd (HLA-B*39:01; [14]): 42.4 nM; Kd (HLA-A*69:01; [14]): ≥ 20 µM; Kd (HLA-A*03:01 [6]; [14]): ≥ 20 µM; Kd (HLA-B*58:01 [7]; [14]): ≥ 20 µM; Kd (HLA-B*27:05; [14]): ≥ 20 µM; Kd (HLA-B*07:02; [14]): ≥ 20 µM; Kd (HLA-B*46:01; [14]): ≥ 20 µM; Kd (HLA-B*57:01 [8]; [14]): ≥ 20 µM; Kd (HLA-B*44:02; [14]): ≥ 20 µM; Kd (HLA-A*31:01; [14]): ≥ 20 µM; Kd (HLA-A*29:02; [14]): ≥ 20 µM

**Q.** IAHVRDVVM was tested. Which Kd (HLA-B*18:01) did it give?
**A.** The Kd was at least 20 µM.

**Q.** And the Kd (HLA-B*40:01; [16])?
**A.** Its Kd is at least 20 µM.

**Q.** What about the Kd (HLA-B*48:01) of the same sequence?
**A.** The Kd was at least 20 µM.

**Q.** And the Kd (HLA-A*01:01; [16])?
**A.** The Kd was at least 20000 nM.

**Q.** What about the Kd (HLA-A*11:01; [16]) of the same sequence?
**A.** Its Kd is at least 20 µM.

**Q.** And the Kd (HLA-B*08:01 [11])?
**A.** The Kd was 182 nM.

**Q.** What about the Kd (HLA-A*69:01; [16]) of the same sequence?
**A.** Its Kd is at least 20 µM.

**Q.** And the Kd (HLA-A*03:01 [6]; [16])?
**A.** Its Kd is at least 20 µM.

**Q.** And the Kd (HLA-B*58:01 [7]; [16])?
**A.** Its Kd is at least 20 µM.

**Q.** What about the Kd (HLA-B*27:05; [16]) of the same sequence?
**A.** Its Kd is at least 20 µM.

**Q.** What about the Kd (HLA-A*02:01) of the same sequence?
**A.** The Kd was at least 20 µM.

**Q.** What about the Kd (HLA-B*44:02; [16]) of the same sequence?
**A.** The Kd was at least 20 µM.

**Q.** And the Kd (HLA-A*31:01; [16])?
**A.** The Kd was at least 20 µM.

**Q.** What about the Kd (HLA-A*29:02; [16]) of the same sequence?
**A.** Its Kd is at least 20 µM.
